Measurements reported in patent US20230072197A1 (KOREA UNIVERSITY RESEARCH AND BUSINESS FOUNDATION, published 2023).

B1: Fc variant L309G/Q311L/M428L (bacterial display) (other)
chain: DKTHTCPPCPAPELLGGPSVFLFPPKPKDTLMISRTPEVTCVVVDVSHEDPEVKFNWYVDGVEVHNAKTKPREEQYNSTYRVVSVLTVGHLDWLNGKEYKCKVSNKALPAPIEKTISKAKGQPREPQVYTLPPSRDELTKNQVSLTCLVKGFYPSDIAVEWESNGQPENNYKTTPPVLDSDGSFFLYSKLTVDKSRWQQGNVFSCSVLHEALHNHYTQKSLSLSPGK
notes: also called Q311L in M428L and L309G Fc variant
B2: Fc variant L309G/Q311I/M428L (bacterial display) (other)
chain: DKTHTCPPCPAPELLGGPSVFLFPPKPKDTLMISRTPEVTCVVVDVSHEDPEVKFNWYVDGVEVHNAKTKPREEQYNSTYRVVSVLTVGHIDWLNGKEYKCKVSNKALPAPIEKTISKAKGQPREPQVYTLPPSRDELTKNQVSLTCLVKGFYPSDIAVEWESNGQPENNYKTTPPVLDSDGSFFLYSKLTVDKSRWQQGNVFSCSVLHEALHNHYTQKSLSLSPGK
notes: also called Q311I in M428L and L309G Fc variant
B3: Fc variant L309G/Q311W/M428L (bacterial display) (other)
chain: DKTHTCPPCPAPELLGGPSVFLFPPKPKDTLMISRTPEVTCVVVDVSHEDPEVKFNWYVDGVEVHNAKTKPREEQYNSTYRVVSVLTVGHWDWLNGKEYKCKVSNKALPAPIEKTISKAKGQPREPQVYTLPPSRDELTKNQVSLTCLVKGFYPSDIAVEWESNGQPENNYKTTPPVLDSDGSFFLYSKLTVDKSRWQQGNVFSCSVLHEALHNHYTQKSLSLSPGK
notes: also called Q311W in M428L and L309G Fc variant
B4: Fc variant L309G/Q311H/M428L (bacterial display) (other)
chain: DKTHTCPPCPAPELLGGPSVFLFPPKPKDTLMISRTPEVTCVVVDVSHEDPEVKFNWYVDGVEVHNAKTKPREEQYNSTYRVVSVLTVGHHDWLNGKEYKCKVSNKALPAPIEKTISKAKGQPREPQVYTLPPSRDELTKNQVSLTCLVKGFYPSDIAVEWESNGQPENNYKTTPPVLDSDGSFFLYSKLTVDKSRWQQGNVFSCSVLHEALHNHYTQKSLSLSPGK
notes: also called Q311H in M428L and L309G Fc variant
B5: Fc variant L309G/Q311T/M428L (bacterial display) (other)
chain: DKTHTCPPCPAPELLGGPSVFLFPPKPKDTLMISRTPEVTCVVVDVSHEDPEVKFNWYVDGVEVHNAKTKPREEQYNSTYRVVSVLTVGHTDWLNGKEYKCKVSNKALPAPIEKTISKAKGQPREPQVYTLPPSRDELTKNQVSLTCLVKGFYPSDIAVEWESNGQPENNYKTTPPVLDSDGSFFLYSKLTVDKSRWQQGNVFSCSVLHEALHNHYTQKSLSLSPGK
notes: also called Q311T in M428L and L309G Fc variant
B6: Fc variant L309G/Q311V/M428L (bacterial display) (other)
chain: DKTHTCPPCPAPELLGGPSVFLFPPKPKDTLMISRTPEVTCVVVDVSHEDPEVKFNWYVDGVEVHNAKTKPREEQYNSTYRVVSVLTVGHVDWLNGKEYKCKVSNKALPAPIEKTISKAKGQPREPQVYTLPPSRDELTKNQVSLTCLVKGFYPSDIAVEWESNGQPENNYKTTPPVLDSDGSFFLYSKLTVDKSRWQQGNVFSCSVLHEALHNHYTQKSLSLSPGK
notes: also called Q311V in M428L and L309G Fc variant
B7: Fc variant L309G/Q311Y/M428L (bacterial display) (other)
chain: DKTHTCPPCPAPELLGGPSVFLFPPKPKDTLMISRTPEVTCVVVDVSHEDPEVKFNWYVDGVEVHNAKTKPREEQYNSTYRVVSVLTVGHYDWLNGKEYKCKVSNKALPAPIEKTISKAKGQPREPQVYTLPPSRDELTKNQVSLTCLVKGFYPSDIAVEWESNGQPENNYKTTPPVLDSDGSFFLYSKLTVDKSRWQQGNVFSCSVLHEALHNHYTQKSLSLSPGK
notes: also called Q311Y in M428L and L309G Fc variant
B8: Fc variant L309G/Q311A/M428L (bacterial display) (other)
chain: DKTHTCPPCPAPELLGGPSVFLFPPKPKDTLMISRTPEVTCVVVDVSHEDPEVKFNWYVDGVEVHNAKTKPREEQYNSTYRVVSVLTVGHADWLNGKEYKCKVSNKALPAPIEKTISKAKGQPREPQVYTLPPSRDELTKNQVSLTCLVKGFYPSDIAVEWESNGQPENNYKTTPPVLDSDGSFFLYSKLTVDKSRWQQGNVFSCSVLHEALHNHYTQKSLSLSPGK
notes: also called Q311A in M428L and L309G Fc variant
B9: Fc variant L309G/Q311K/M428L (bacterial display) (other)
chain: DKTHTCPPCPAPELLGGPSVFLFPPKPKDTLMISRTPEVTCVVVDVSHEDPEVKFNWYVDGVEVHNAKTKPREEQYNSTYRVVSVLTVGHKDWLNGKEYKCKVSNKALPAPIEKTISKAKGQPREPQVYTLPPSRDELTKNQVSLTCLVKGFYPSDIAVEWESNGQPENNYKTTPPVLDSDGSFFLYSKLTVDKSRWQQGNVFSCSVLHEALHNHYTQKSLSLSPGK
notes: also called Q311K in M428L and L309G Fc variant

biological target: human FcRn (probe in the FACS analysis of bacterially displayed Fc variants) (human, UniProt P55899 24-297; P61769 21-119, limits assumed); experiment: FACS of bacterially displayed Fc variants with human FcRn, pH 6.0

Binding result, binds:
B1, B2, B3, B4, B5, B6, B7, B8, B9
